Data: US20120034160A1 (AbbVie / Abbott, published 2012)

Legend:
Recombinant Human IL-17 = target: T1, Recombinant Human IL-17 (human, UniProt Q16552 20-155, limits assumed); experiment: Biacore SPR; N-terminal VD
T1 construct: bought reagent
T1 sequence (looked up): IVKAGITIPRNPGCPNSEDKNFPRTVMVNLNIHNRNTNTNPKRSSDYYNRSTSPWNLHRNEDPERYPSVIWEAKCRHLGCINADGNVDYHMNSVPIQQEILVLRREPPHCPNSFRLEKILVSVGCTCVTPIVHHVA
Procedure: (§1) The BIACORE assay (Biacore, Inc, Piscataway, N.J.) determines the affinity of antibodies or DVD-Ig with kinetic measurements of on-rate and off-rate constants. Binding of antibodies or DVD-Ig to a target antigen (for example, a purified recombinant target antigen) was determined by surface plasmon resonance-based measurements with a Biacore® 1000 or 3000 instrument (Biacore® AB, Uppsala, Sweden) using running HBS-EP (10 mM HEPES [pH 7.4], 150 mM NaCl, 3 mM EDTA, and 0.005% surfactant P20) at 25° C. All chemicals were obtained from Biacore® AB (Uppsala, Sweden) or otherwise from a different source as described in the text. For example, approximately 5000 RU of goat anti-mouse IgG, (Fcγ), fragment specific polyclonal antibody (Pierce Biotechnology Inc, Rockford, Ill.) diluted in 10 mM sodium acetate (pH 4.5) was directly immobilized across a CM5 research grade biosensor chip using a standard amine coupling kit according to manufacturer's instructions and procedures at 25 μg/ml. Unreacted moieties on the biosensor surface were blocked with ethanolamine. Modified carboxymethyl dextran surface in flowcell 2 and 4 was used as a reaction surface. Unmodified carboxymethyl dextran without goat anti-mouse IgG in flow cell 1 and 3 was used as the reference surface. For kinetic analysis, rate equations derived from the 1:1 Langmuir binding model were fitted simultaneously to association and dissociation phases of all eight injections (using global fit analysis) with the use of Biaevaluation 4.0.1 software. Purified antibodies or DVD-Ig were diluted in HEPES-buffered saline for capture across goat anti-mouse IgG specific reaction surfaces. Antibodies or DVD-Ig to be captured as a ligand (25 μg/ml) were injected over reaction matrices at a flow rate of 5 μl/min. The association and dissociation rate constants, kₒₙ (M⁻¹s⁻¹) and koff (s⁻¹) were determined under a continuous flow rate of 25 μl/min. Rate constants were derived by making kinetic binding measurements at different antigen concentrations ranging from 10−200 nM. The equilibrium dissociation constant (M) of the reaction between antibodies or DVD-Igs and the target antigen was then calculated from the kinetic rate constants by the following formula: KD=koff/kₒₙ. Binding was recorded as a function of time and kinetic rate constants are calculated.

Recombinant Human IL-1β = target: T2, Recombinant Human IL-1β (human, UniProt P01584 117-269); experiment: Biacore SPR; C-terminal VD
T2 construct: bought reagent; also called IL-1B
Procedure: as §1

Binder	Kd (Recombinant Human IL-17)	koff (Recombinant Human IL-17)	kon (Recombinant Human IL-17)	Kd (Recombinant Human IL-1β)	koff (Recombinant Human IL-1β)	kon (Recombinant Human IL-1β)
DVD1273 (bispecific antibody, human IgG1, kappa, V1 wt hIgG1, V2 kappa; also called DVD1273H; DVD1273L) heavy: not shown light: EIVLTQSPDFQSVTPKEKVTITCRASQDIGSELHWYQQKPDQPPKLLIKYASHSTSGVPSRFSGSGSGTDFTLTINGLEAEDAGTYYCHQTDSLPYTFGPGTKVDIKRTVAAPDIQMTQSPSSLSASVGDRVTITCRASGNIHNYLTWYQQTPGKAPKLLIYNAKTLADGVPSRFSGSGSGTDYTFTISSLQPEDIATYYCQHFWSIPYTFGQGTKLQITRTVAAPSVFIFPPSDEQLKSGTASVVCLLNNFYPREAKVQWKVDNALQSGNSQESVTEQDSKDSTYSLSSTLTLSKADYEKHKVYACEVTHQGLSSPVTKSFNRGEC	0.2 nM	2.2e-05 s⁻¹	110000 M⁻¹ s⁻¹	0.27 nM	0.00019 s⁻¹	690000 M⁻¹ s⁻¹
DVD1283 (bispecific antibody, human IgG1, kappa, V1 wt hIgG1, V2 kappa; also called DVD1283H; DVD1283L) heavy: not shown light: EIVLTQSPDFQSVTPKEKVTITCRASQNIGSELHWYQQKPDQSPKLLIKYASHSISGVPSRFSGSGSGTDFTLTINGLEAEDAATYYCHQSDTLPHTFGQGTKVDIKRTVAAPDIQMTQSPSSLSASVGDRVTITCRASGNIHNYLTWYQQTPGKAPKLLIYNAKTLADGVPSRFSGSGSGTDYTFTISSLQPEDIATYYCQHFWSIPYTFGQGTKLQITRTVAAPSVFIFPPSDEQLKSGTASVVCLLNNFYPREAKVQWKVDNALQSGNSQESVTEQDSKDSTYSLSSTLTLSKADYEKHKVYACEVTHQGLSSPVTKSFNRGEC	0.46 nM	5.8e-05 s⁻¹	130000 M⁻¹ s⁻¹	0.1 nM	0.00026 s⁻¹	2.5e+06 M⁻¹ s⁻¹
DVD1277 (bispecific antibody, human IgG1, kappa, DVD-Ig, outer AB274, inner AB270, linker set 1; V1 wt hIgG1, V2 kappa; also called DVD1277H; DVD1277L) heavy: not shown light: EIVLTQSPDFQSVTPKEKVTITCRASQDIGSELHWYQQKPDQPPKLLIKYASHSTSGVPSRFSGSGSGTDFTLTINGLEAEDAGTYYCHQTDSLPYTFGPGTKVDIKRTVAAPDTQVTQSPSSLSASVGDRVTITCITSTDIDVDMNWYQQKPGKPPKLLISQGNTLRPGVPSRFSSSGSGTDFTFTISSLQPEDFATYYCLQSDNLPLTFGQGTKLEIKRTVAAPSVFIFPPSDEQLKSGTASVVCLLNNFYPREAKVQWKVDNALQSGNSQESVTEQDSKDSTYSLSSTLTLSKADYEKHKVYACEVTHQGLSSPVTKSFNRGEC	0.16 nM	2.2e-05 s⁻¹	130000 M⁻¹ s⁻¹	2.1 nM	0.00049 s⁻¹	230000 M⁻¹ s⁻¹
DVD1267 (bispecific antibody, human IgG1, kappa, DVD-Ig, outer AB273, inner AB270, linker set 1; V1 wt hIgG1, V2 kappa; also called DVD1267H; DVD1267L) heavy: not shown light: DIQMTQSPSSLSASVGDRVTITCRASSGIISYIDWFQQKPGKAPKRLIYATFDLASGVPSRFSGSGSGTDYTLTISSLQPEDFATYYCRQVGSYPETFGQGTKLEIKRTVAAPDTQVTQSPSSLSASVGDRVTITCITSTDIDVDMNWYQQKPGKPPKLLISQGNTLRPGVPSRFSSSGSGTDFTFTISSLQPEDFATYYCLQSDNLPLTFGQGTKLEIKRTVAAPSVFIFPPSDEQLKSGTASVVCLLNNFYPREAKVQWKVDNALQSGNSQESVTEQDSKDSTYSLSSTLTLSKADYEKHKVYACEVTHQGLSSPVTKSFNRGEC	≤ 0.066 nM	≤ 1e-05 s⁻¹	150000 M⁻¹ s⁻¹	1.1 nM	0.00041 s⁻¹	370000 M⁻¹ s⁻¹
DVD1271 (bispecific antibody, human IgG1, kappa, DVD-Ig, outer AB273, inner AB272, linker set 1; V1 wt hIgG1, V2 kappa; also called DVD1271H; DVD1271L) heavy: not shown light: DIQMTQSPSSLSASVGDRVTITCRASSGIISYIDWFQQKPGKAPKRLIYATFDLASGVPSRFSGSGSGTDYTLTISSLQPEDFATYYCRQVGSYPETFGQGTKLEIKRTVAAPETTVTQSPSSLSASVGDRVTITCITSTDIDVDMNWYQQKPGKPPKLLISQGNTLRPGVPSRFSSSGSGTDFTFTISSLQPEDFATYYCLQSDNLPLTFGQGTKLEIKRTVAAPSVFIFPPSDEQLKSGTASVVCLLNNFYPREAKVQWKVDNALQSGNSQESVTEQDSKDSTYSLSSTLTLSKADYEKHKVYACEVTHQGLSSPVTKSFNRGEC	0.11 nM	1.2e-05 s⁻¹	110000 M⁻¹ s⁻¹	2.2 nM	0.00071 s⁻¹	320000 M⁻¹ s⁻¹
DVD1263 (bispecific antibody, human IgG1, kappa, V1 wt hIgG1, V2 kappa; also called DVD1263H; DVD1263L) heavy: not shown light: DIQMTQSPSSLSASVGDRVTITCRASSGIISYIDWFQQKPGKAPKRLIYATFDLASGVPSRFSGSGSGTDYTLTISSLQPEDFATYYCRQVGSYPETFGQGTKLEIKRTVAAPDIQMTQSPSSLSASVGDRVTITCRASGNIHNYLTWYQQTPGKAPKLLIYNAKTLADGVPSRFSGSGSGTDYTFTISSLQPEDIATYYCQHFWSIPYTFGQGTKLQITRTVAAPSVFIFPPSDEQLKSGTASVVCLLNNFYPREAKVQWKVDNALQSGNSQESVTEQDSKDSTYSLSSTLTLSKADYEKHKVYACEVTHQGLSSPVTKSFNRGEC	0.061 nM	7.8e-06 s⁻¹	130000 M⁻¹ s⁻¹	0.17 nM	0.00015 s⁻¹	890000 M⁻¹ s⁻¹
DVD1265 (bispecific antibody, human IgG1, kappa, V1 wt hIgG1, V2 kappa; also called DVD1265H; DVD1265L) heavy: not shown light: DIQMTQSPSSLSASVGDRVTITCRASSGIISYIDWFQQKPGKAPKRLIYATFDLASGVPSRFSGSGSGTDYTLTISSLQPEDFATYYCRQVGSYPETFGQGTKLEIKRTVAAPDIQMTQSPSSLSASVGDRVTITCRASGNIHNYLTWYQQTPGKAPKLLIYNAKTLADGVPSRFSGSGSGTDYTFTISSLQPEDIATYYCQHFWSIPYTFGQGTKLQITRTVAAPSVFIFPPSDEQLKSGTASVVCLLNNFYPREAKVQWKVDNALQSGNSQESVTEQDSKDSTYSLSSTLTLSKADYEKHKVYACEVTHQGLSSPVTKSFNRGEC	0.096 nM	1.1e-05 s⁻¹	120000 M⁻¹ s⁻¹	0.088 nM	0.0003 s⁻¹	3.4e+06 M⁻¹ s⁻¹

Other lines, results leading:

Kd (Recombinant Human IL-17)	koff (Recombinant Human IL-17)	kon (Recombinant Human IL-17)	Kd (Recombinant Human IL-1β)	koff (Recombinant Human IL-1β)	kon (Recombinant Human IL-1β)	Binder
0.15 nM	2.1e-05 s⁻¹	140000 M⁻¹ s⁻¹	0.15 nM	0.00011 s⁻¹	760000 M⁻¹ s⁻¹	DVD1275 (bispecific antibody, human IgG1, kappa, V1 wt hIgG1, V2 kappa; also called DVD1275H; DVD1275L) heavy: not shown light: EIVLTQSPDFQSVTPKEKVTITCRASQDIGSELHWYQQKPDQPPKLLIKYASHSTSGVPSRFSGSGSGTDFTLTINGLEAEDAGTYYCHQTDSLPYTFGPGTKVDIKRTVAAPDIQMTQSPSSLSASVGDRVTITCRASGNIHNYLTWYQQTPGKAPKLLIYNAKTLADGVPSRFSGSGSGTDYTFTISSLQPEDIATYYCQHFWSIPYTFGQGTKLQITRTVAAPSVFIFPPSDEQLKSGTASVVCLLNNFYPREAKVQWKVDNALQSGNSQESVTEQDSKDSTYSLSSTLTLSKADYEKHKVYACEVTHQGLSSPVTKSFNRGEC
0.1 nM	2e-05 s⁻¹	200000 M⁻¹ s⁻¹	2 nM	0.00058 s⁻¹	280000 M⁻¹ s⁻¹	DVD1281 (bispecific antibody, human IgG1, kappa, DVD-Ig, outer AB274, inner AB272, linker set 1; V1 wt hIgG1, V2 kappa; also called DVD1281H; DVD1281L) heavy: not shown light: EIVLTQSPDFQSVTPKEKVTITCRASQDIGSELHWYQQKPDQPPKLLIKYASHSTSGVPSRFSGSGSGTDFTLTINGLEAEDAGTYYCHQTDSLPYTFGPGTKVDIKRTVAAPETTVTQSPSSLSASVGDRVTITCITSTDIDVDMNWYQQKPGKPPKLLISQGNTLRPGVPSRFSSSGSGTDFTFTISSLQPEDFATYYCLQSDNLPLTFGQGTKLEIKRTVAAPSVFIFPPSDEQLKSGTASVVCLLNNFYPREAKVQWKVDNALQSGNSQESVTEQDSKDSTYSLSSTLTLSKADYEKHKVYACEVTHQGLSSPVTKSFNRGEC
0.12 nM	2.3e-05 s⁻¹	190000 M⁻¹ s⁻¹	1.4 nM	0.00045 s⁻¹	320000 M⁻¹ s⁻¹	DVD1279 (bispecific antibody, human IgG1, kappa, DVD-Ig, outer AB274, inner AB271, linker set 1; V1 wt hIgG1, V2 kappa; also called DVD1279H; DVD1279L) heavy: not shown light: EIVLTQSPDFQSVTPKEKVTITCRASQDIGSELHWYQQKPDQPPKLLIKYASHSTSGVPSRFSGSGSGTDFTLTINGLEAEDAGTYYCHQTDSLPYTFGPGTKVDIKRTVAAPDTVVTQSPAFLSVTPGEKVTITCITSTDIDVDMNWYQQKPDQPPKLLISQGNTLRPGVPSRFSSSGSGTDFTFTISSLEAEDAATYYCLQSDNLPLTFGQGTKLEIKRTVAAPSVFIFPPSDEQLKSGTASVVCLLNNFYPREAKVQWKVDNALQSGNSQESVTEQDSKDSTYSLSSTLTLSKADYEKHKVYACEVTHQGLSSPVTKSFNRGEC
0.032 nM	5e-06 s⁻¹	160000 M⁻¹ s⁻¹	1.1 nM	0.00043 s⁻¹	400000 M⁻¹ s⁻¹	DVD1269 (bispecific antibody, human IgG1, kappa, DVD-Ig, outer AB273, inner AB271, linker set 1; V1 wt hIgG1, V2 kappa; also called DVD1269H; DVD1269L) heavy: not shown light: DIQMTQSPSSLSASVGDRVTITCRASSGIISYIDWFQQKPGKAPKRLIYATFDLASGVPSRFSGSGSGTDYTLTISSLQPEDFATYYCRQVGSYPETFGQGTKLEIKRTVAAPDTVVTQSPAFLSVTPGEKVTITCITSTDIDVDMNWYQQKPDQPPKLLISQGNTLRPGVPSRFSSSGSGTDFTFTISSLEAEDAATYYCLQSDNLPLTFGQGTKLEIKRTVAAPSVFIFPPSDEQLKSGTASVVCLLNNFYPREAKVQWKVDNALQSGNSQESVTEQDSKDSTYSLSSTLTLSKADYEKHKVYACEVTHQGLSSPVTKSFNRGEC
